This data set deals with the molecule itself. The data set can be described thus: SDS PAGE and native PAGE, non-reducing against reducing conditions (self-association).

B1: full length recombinant His-tagged FKBP-L protein (variant Thr181, Gly186), N-terminal poly-histidine tag (other)
chain: MRGSHHHHHHGMASMTGGQQMGRDLYDDDDKDRWGSMETPPVNTIGEKDTSQPQQEWEKNLRENLDSVIQIRQQPRDPPTETLELEVSPDPASQILEHTQGAEKLVAELEGDSHKSHGSTSQMPEALQASDLWYCPDGSFVKKIVIRGHGLDKPKLGSCCRVLALGFPFGSGPPEGWTELTMGVGPWREETWGELIEKCLESMCQGEEAELQLPGHTGPPVGLTLASFTQGRDSWELETSEKEALAREERARGTELFRAGNPEGAARCYGRALRLLLTLPPPGPPERTVLHANLAACQLLLGQPQLAAQSCDRVLEREPGHLKALYRRGVAQAALGNLEKATADLKKVLAIDPKNRAAQEELGKVVIQGKNQDAGLAQGLRKMFG
notes: also called recombinant FKBP-L; rFKBP-L
For B1, the binding result was “binds”.
